Starred links: 1 amine or outer side, 2 acyl side, 3 side chain; linkers in the order of their positions; H or OH if unused. Non-standard residues stand in square brackets, D forms with d. TyrEtNAc = (2S)-3-[4-(2-acetamidoethoxy)phenyl]-2-amino-propanoic acid, CC(=O)NCCOc1ccc(C[C@H](N[*:1])C(=O)[*:2])cc1; dProc3Bn = (2R,3S)-3-benzylpyrrolidine-2-carboxylic acid, O=C([C@H]1[C@@H](Cc2ccccc2)CCN1[*:1])[*:2]; dProc4Bn = (2R,4R)-4-benzylpyrrolidine-2-carboxylic acid, O=C([C@H]1C[C@@H](Cc2ccccc2)CN1[*:1])[*:2]; Phe(4-(5-CO2H-2-pyrimidyl)) = N[C@@H](Cc1ccc(-c2ncc(C(=O)O)cn2)cc1)C(=O)O; dPro(4R-(4-pyridylmethyl)) = O=C(O)[C@H]1C[C@@H](Cc2ccncc2)CN1; Trp(βS-Me,4-F) = C[C@@H](c1c[nH]c2cccc(F)c12)[C@H](N)C(=O)O; 3Aminoazetidine3carboxyl = O=C(C1(N[*:1])CN([*:3])C1)[*:2]; Bip(4'-COOH) = N[C@@H](Cc1ccc(-c2ccc(C(=O)O)cc2)cc1)C(=O)O; Ala(1-bicyclo(1.1.1)pentyl) = N[C@@H](CC12CC(C1)C2)C(=O)O; dPro(4R-Bzl(4-F)) = O=C(O)[C@H]1C[C@@H](Cc2ccc(F)cc2)CN1; Ala(pyrimidin-5-yl) = N[C@@H](Cc1cncnc1)C(=O)O; Phe(4-COOH) = N[C@@H](Cc1ccc(C(=O)O)cc1)C(=O)O; Pro(cis-4-F) = O=C(O)[C@@H]1C[C@H](F)CN1; 4Pal = N[C@@H](Cc1ccncc1)C(=O)O; Orn = NCCC[C@H](N)C(=O)O; Dab = NCC[C@H](N)C(=O)O; Aib = CC(C)(N)C(=O)O
B1: SEQ ID NO: 8 (peptide)
peptide: cyclo([Bip(4'-COOH)][4Pal][Phe(4-COOH)]G[Pro(cis-4-F)][Trp(βS-Me,4-F)][Aib]EW[Aib][Ala(pyrimidin-5-yl)]Q[Orn]G[dPro(4R-Bzl(4-F))])
SMILES: C[C@@H](c1c[nH]c2cccc(F)c12)[C@@H]1NC(=O)[C@@H]2C[C@H](F)CN2C(=O)CNC(=O)[C@H](Cc2ccc(C(=O)O)cc2)NC(=O)[C@H](Cc2ccncc2)NC(=O)[C@H](Cc2ccc(-c3ccc(C(=O)O)cc3)cc2)NC(=O)[C@H]2C[C@@H](Cc3ccc(F)cc3)CN2C(=O)CNC(=O)[C@H](CCCN)NC(=O)[C@H](CCC(N)=O)NC(=O)[C@H](Cc2cncnc2)NC(=O)C(C)(C)NC(=O)[C@H](Cc2c[nH]c3ccccc23)NC(=O)[C@H](CCC(=O)O)NC(=O)C(C)(C)NC1=O
B2: SEQ ID NO: 87 (peptide)
peptide: cyclo([Phe(4-(5-CO2H-2-pyrimidyl))][Ala(1-bicyclo(1.1.1)pentyl)][Phe(4-COOH)]G[Pro(cis-4-F)][Trp(βS-Me,4-F)][Aib]AW[Aib][Ala(pyrimidin-5-yl)]Q[Dab]G[dPro(4R-(4-pyridylmethyl))])
SMILES: C[C@@H]1NC(=O)C(C)(C)NC(=O)[C@H]([C@@H](C)c2c[nH]c3cccc(F)c23)NC(=O)[C@@H]2C[C@H](F)CN2C(=O)CNC(=O)[C@H](Cc2ccc(C(=O)O)cc2)NC(=O)[C@H](CC23CC(C2)C3)NC(=O)[C@H](Cc2ccc(-c3ncc(C(=O)O)cn3)cc2)NC(=O)[C@H]2C[C@@H](Cc3ccncc3)CN2C(=O)CNC(=O)[C@H](CCN)NC(=O)[C@H](CCC(N)=O)NC(=O)[C@H](Cc2cncnc2)NC(=O)C(C)(C)NC(=O)[C@H](Cc2c[nH]c3ccccc23)NC1=O
B3: SEQ ID NO: 82 (peptide)
peptide: cyclo([Phe(4-(5-CO2H-2-pyrimidyl))][Ala(1-bicyclo(1.1.1)pentyl)][Phe(4-COOH)]G[Pro(cis-4-F)][Trp(βS-Me,4-F)][Aib]EW[Aib][Ala(pyrimidin-5-yl)]Q[Dab]G[dPro(4R-Bzl(4-F))])
SMILES: C[C@@H](c1c[nH]c2cccc(F)c12)[C@@H]1NC(=O)[C@@H]2C[C@H](F)CN2C(=O)CNC(=O)[C@H](Cc2ccc(C(=O)O)cc2)NC(=O)[C@H](CC23CC(C2)C3)NC(=O)[C@H](Cc2ccc(-c3ncc(C(=O)O)cn3)cc2)NC(=O)[C@H]2C[C@@H](Cc3ccc(F)cc3)CN2C(=O)CNC(=O)[C@H](CCN)NC(=O)[C@H](CCC(N)=O)NC(=O)[C@H](Cc2cncnc2)NC(=O)C(C)(C)NC(=O)[C@H](Cc2c[nH]c3ccccc23)NC(=O)[C@H](CCC(=O)O)NC(=O)C(C)(C)NC1=O
B4: SEQ ID NO: 78 (peptide)
peptide: cyclo([TyrEtNAc][4Pal][Phe(4-COOH)][Pro(cis-4-F)][Trp(βS-Me,4-F)][Aib]EW[Aib][Ala(pyrimidin-5-yl)]Q[Dab]G[dProc3Bn])
SMILES: CC(=O)NCCOc1ccc(C[C@@H]2NC(=O)[C@H]3[C@@H](Cc4ccccc4)CCN3C(=O)CNC(=O)[C@H](CCN)NC(=O)[C@H](CCC(N)=O)NC(=O)[C@H](Cc3cncnc3)NC(=O)C(C)(C)NC(=O)[C@H](Cc3c[nH]c4ccccc34)NC(=O)[C@H](CCC(=O)O)NC(=O)C(C)(C)NC(=O)[C@H]([C@@H](C)c3c[nH]c4cccc(F)c34)NC(=O)[C@@H]3C[C@H](F)CN3C(=O)[C@H](Cc3ccc(C(=O)O)cc3)NC(=O)[C@H](Cc3ccncc3)NC2=O)cc1
B5: SEQ ID NO: 84 (peptide)
peptide: cyclo([Phe(4-(5-CO2H-2-pyrimidyl))][Ala(1-bicyclo(1.1.1)pentyl)][Phe(4-COOH)]G[Pro(cis-4-F)][Trp(βS-Me,4-F)][Aib]SW[Aib][4Pal]Q[Dab]G[dPro(4R-Bzl(4-F))])
SMILES: C[C@@H](c1c[nH]c2cccc(F)c12)[C@@H]1NC(=O)[C@@H]2C[C@H](F)CN2C(=O)CNC(=O)[C@H](Cc2ccc(C(=O)O)cc2)NC(=O)[C@H](CC23CC(C2)C3)NC(=O)[C@H](Cc2ccc(-c3ncc(C(=O)O)cn3)cc2)NC(=O)[C@H]2C[C@@H](Cc3ccc(F)cc3)CN2C(=O)CNC(=O)[C@H](CCN)NC(=O)[C@H](CCC(N)=O)NC(=O)[C@H](Cc2ccncc2)NC(=O)C(C)(C)NC(=O)[C@H](Cc2c[nH]c3ccccc23)NC(=O)[C@H](CO)NC(=O)C(C)(C)NC1=O
B6: SEQ ID NO: 86 (peptide)
peptide: cyclo([Phe(4-(5-CO2H-2-pyrimidyl))][Ala(1-bicyclo(1.1.1)pentyl)][Phe(4-COOH)]G[Pro(cis-4-F)][Trp(βS-Me,4-F)][Aib]EW[Aib][4Pal]Q[Dab]G[dPro(4R-(4-pyridylmethyl))])
B7: SEQ ID NO: 80 (peptide)
peptide: cyclo([TyrEtNAc][4Pal][Phe(4-COOH)][Pro(cis-4-F)][Trp(βS-Me,4-F)][Aib]EW[Aib][Ala(pyrimidin-5-yl)]Q[Dab]G[dProc4Bn])
SMILES: CC(=O)NCCOc1ccc(C[C@@H]2NC(=O)[C@H]3C[C@@H](Cc4ccccc4)CN3C(=O)CNC(=O)[C@H](CCN)NC(=O)[C@H](CCC(N)=O)NC(=O)[C@H](Cc3cncnc3)NC(=O)C(C)(C)NC(=O)[C@H](Cc3c[nH]c4ccccc34)NC(=O)[C@H](CCC(=O)O)NC(=O)C(C)(C)NC(=O)[C@H]([C@@H](C)c3c[nH]c4cccc(F)c34)NC(=O)[C@@H]3C[C@H](F)CN3C(=O)[C@H](Cc3ccc(C(=O)O)cc3)NC(=O)[C@H](Cc3ccncc3)NC2=O)cc1
B8: SEQ ID NO: 81 (peptide)
peptide: cyclo([Phe(4-(5-CO2H-2-pyrimidyl))][4Pal][Phe(4-COOH)]G[Pro(cis-4-F)][Trp(βS-Me,4-F)][Aib]EW[3Aminoazetidine3carboxyl][4Pal]Q[Dab]G[dPro(4R-Bzl(4-F))])
SMILES: C[C@@H](c1c[nH]c2cccc(F)c12)[C@@H]1NC(=O)[C@@H]2C[C@H](F)CN2C(=O)CNC(=O)[C@H](Cc2ccc(C(=O)O)cc2)NC(=O)[C@H](Cc2ccncc2)NC(=O)[C@H](Cc2ccc(-c3ncc(C(=O)O)cn3)cc2)NC(=O)[C@H]2C[C@@H](Cc3ccc(F)cc3)CN2C(=O)CNC(=O)[C@H](CCN)NC(=O)[C@H](CCC(N)=O)NC(=O)[C@H](Cc2ccncc2)NC(=O)C2(CNC2)NC(=O)[C@H](Cc2c[nH]c3ccccc23)NC(=O)[C@H](CCC(=O)O)NC(=O)C(C)(C)NC1=O
B9: SEQ ID NO: 83 (peptide)
peptide: cyclo([Phe(4-(5-CO2H-2-pyrimidyl))][Ala(1-bicyclo(1.1.1)pentyl)][Phe(4-COOH)]G[Pro(cis-4-F)][Trp(βS-Me,4-F)][Aib]SW[Aib][Ala(pyrimidin-5-yl)]Q[Dab]G[dPro(4R-Bzl(4-F))])
SMILES: C[C@@H](c1c[nH]c2cccc(F)c12)[C@@H]1NC(=O)[C@@H]2C[C@H](F)CN2C(=O)CNC(=O)[C@H](Cc2ccc(C(=O)O)cc2)NC(=O)[C@H](CC23CC(C2)C3)NC(=O)[C@H](Cc2ccc(-c3ncc(C(=O)O)cn3)cc2)NC(=O)[C@H]2C[C@@H](Cc3ccc(F)cc3)CN2C(=O)CNC(=O)[C@H](CCN)NC(=O)[C@H](CCC(N)=O)NC(=O)[C@H](Cc2cncnc2)NC(=O)C(C)(C)NC(=O)[C@H](Cc2c[nH]c3ccccc23)NC(=O)[C@H](CO)NC(=O)C(C)(C)NC1=O
B10: SEQ ID NO: 79 (peptide)
peptide: cyclo([TyrEtNAc][4Pal][Phe(4-COOH)][Pro(cis-4-F)][Trp(βS-Me,4-F)][Aib]EW[Aib][Ala(pyrimidin-5-yl)]QSG[dProc4Bn])
SMILES: CC(=O)NCCOc1ccc(C[C@@H]2NC(=O)[C@H]3C[C@@H](Cc4ccccc4)CN3C(=O)CNC(=O)[C@H](CO)NC(=O)[C@H](CCC(N)=O)NC(=O)[C@H](Cc3cncnc3)NC(=O)C(C)(C)NC(=O)[C@H](Cc3c[nH]c4ccccc34)NC(=O)[C@H](CCC(=O)O)NC(=O)C(C)(C)NC(=O)[C@H]([C@@H](C)c3c[nH]c4cccc(F)c34)NC(=O)[C@@H]3C[C@H](F)CN3C(=O)[C@H](Cc3ccc(C(=O)O)cc3)NC(=O)[C@H](Cc3ccncc3)NC2=O)cc1
B11: SEQ ID NO: 88 (peptide)
peptide: cyclo([Phe(4-(5-CO2H-2-pyrimidyl))][Ala(1-bicyclo(1.1.1)pentyl)][Phe(4-COOH)]G[Pro(cis-4-F)][Trp(βS-Me,4-F)][Aib]AW[Aib][4Pal]Q[Dab]G[dPro(4R-(4-pyridylmethyl))])
SMILES: C[C@@H]1NC(=O)C(C)(C)NC(=O)[C@H]([C@@H](C)c2c[nH]c3cccc(F)c23)NC(=O)[C@@H]2C[C@H](F)CN2C(=O)CNC(=O)[C@H](Cc2ccc(C(=O)O)cc2)NC(=O)[C@H](CC23CC(C2)C3)NC(=O)[C@H](Cc2ccc(-c3ncc(C(=O)O)cn3)cc2)NC(=O)[C@H]2C[C@@H](Cc3ccncc3)CN2C(=O)CNC(=O)[C@H](CCN)NC(=O)[C@H](CCC(N)=O)NC(=O)[C@H](Cc2ccncc2)NC(=O)C(C)(C)NC(=O)[C@H](Cc2c[nH]c3ccccc23)NC1=O
B12: SEQ ID NO: 85 (peptide)
peptide: cyclo([Phe(4-(5-CO2H-2-pyrimidyl))][4Pal][Phe(4-COOH)]G[Pro(cis-4-F)][Trp(βS-Me,4-F)][Aib]AW[Aib][4Pal]Q[Dab]G[dPro(4R-(4-pyridylmethyl))])
SMILES: C[C@@H]1NC(=O)C(C)(C)NC(=O)[C@H]([C@@H](C)c2c[nH]c3cccc(F)c23)NC(=O)[C@@H]2C[C@H](F)CN2C(=O)CNC(=O)[C@H](Cc2ccc(C(=O)O)cc2)NC(=O)[C@H](Cc2ccncc2)NC(=O)[C@H](Cc2ccc(-c3ncc(C(=O)O)cn3)cc2)NC(=O)[C@H]2C[C@@H](Cc3ccncc3)CN2C(=O)CNC(=O)[C@H](CCN)NC(=O)[C@H](CCC(N)=O)NC(=O)[C@H](Cc2ccncc2)NC(=O)C(C)(C)NC(=O)[C@H](Cc2c[nH]c3ccccc23)NC1=O

The binders below were run against Recombinant human IL-1β (BioLegend 579404) (human, UniProt P01584 117-269) (assay: cell-based or functional assay).

MRC5 IC50 | Binder
0.026 nM | B1
0.087 nM | B2
0.054 nM | B3
0.036 nM | B4
0.047 nM | B5
0.075 nM | B6
0.048 nM | B7
0.049 nM | B8
0.045 nM | B9
0.059 nM | B10
0.083 nM | B11
0.074 nM | B12

Reference: patent publication US20260242419A1, “A CYCLIC PEPTIDE FOR TRAPPING INTERLEUKIN-1 BETA” (Merck Sharp & Dohme LLC, priority 2023, published 2026)
